Results published in patent US10434074B2, “Peptide and small molecule agonists of EPHA and uses thereof” (CASE WESTERN RESERVE UNIVERSITY, priority 2004, dated 2019).

What was measured:
primary keratinocytes = assay: Clonal growth of primary keratinocytes; type: cell-based, mouse
Protocol: FIGS. 43(A-C) illustrate EphA2 kinase is required for ephrin-A1-induced inhibition of ERK1/2 MAP kinase and growth suppression in primary keratinocytes. A) EphA kinase activation by ephrin-A1 in EphA2^+/+ and EphA2^+/− but not EphA2^−/− keratinocytes. Keratinocytes were isolated from newborn (P1) mice and cultured on matrigel-coated culture plates. They were stimulated with 1.0 μg/ml of ephrin-A1-Fc for 10 min. The unstimulated cells were used as control. EphA receptors including EphA2 were precipitated from the cell lysates using ephrin-A1-Fc, and were subjected to immunoblot analysis with rabbit polyclonal anti-phospho-EphA/B antibody. Membrane was stripped and blotted again for total EphA2. B) Ephrin-A1 stimulation leads to inactivation of ERK1/2 MAPK in EphA2^+/+ and EphA2^+/− but not EphA2^−/− keratinocytes. Total cell lysates were analyzed by immunoblot with the indicated antibodies. The band densities from p-ERK blot were normalized to the corresponding total ERK1 blot. The ratios of p-ERK between ephrin-A1-treated and untreated were shown in the lower panel. C). Ephrin-A1 stimulation inhibits clonal growth of EphA2^+/+ and EphA2^+/− but not EphA2^−/− keratinocytes. Primary keratinocytes were plated on 6-well plates coated with matrigel at 5,000 cells/well, and allowed to grow for 12 days in the presence of Fc (0.5 μg/ml) or ephrin-A1-Fc (1.0 μg/ml).

EphA1 = target: T1, EphA1 (Homo sapiens, UniProt P21709); assay: Proliferation of DU145 cells expressing EphA1; type: cell-based; conditions: 10% serum 7 days or 0.5% serum 18 days
T1 construct: expressed in transfected cells; host or cells: DU145 cells, retroviral infection
T1 sequence (P21709 26-976): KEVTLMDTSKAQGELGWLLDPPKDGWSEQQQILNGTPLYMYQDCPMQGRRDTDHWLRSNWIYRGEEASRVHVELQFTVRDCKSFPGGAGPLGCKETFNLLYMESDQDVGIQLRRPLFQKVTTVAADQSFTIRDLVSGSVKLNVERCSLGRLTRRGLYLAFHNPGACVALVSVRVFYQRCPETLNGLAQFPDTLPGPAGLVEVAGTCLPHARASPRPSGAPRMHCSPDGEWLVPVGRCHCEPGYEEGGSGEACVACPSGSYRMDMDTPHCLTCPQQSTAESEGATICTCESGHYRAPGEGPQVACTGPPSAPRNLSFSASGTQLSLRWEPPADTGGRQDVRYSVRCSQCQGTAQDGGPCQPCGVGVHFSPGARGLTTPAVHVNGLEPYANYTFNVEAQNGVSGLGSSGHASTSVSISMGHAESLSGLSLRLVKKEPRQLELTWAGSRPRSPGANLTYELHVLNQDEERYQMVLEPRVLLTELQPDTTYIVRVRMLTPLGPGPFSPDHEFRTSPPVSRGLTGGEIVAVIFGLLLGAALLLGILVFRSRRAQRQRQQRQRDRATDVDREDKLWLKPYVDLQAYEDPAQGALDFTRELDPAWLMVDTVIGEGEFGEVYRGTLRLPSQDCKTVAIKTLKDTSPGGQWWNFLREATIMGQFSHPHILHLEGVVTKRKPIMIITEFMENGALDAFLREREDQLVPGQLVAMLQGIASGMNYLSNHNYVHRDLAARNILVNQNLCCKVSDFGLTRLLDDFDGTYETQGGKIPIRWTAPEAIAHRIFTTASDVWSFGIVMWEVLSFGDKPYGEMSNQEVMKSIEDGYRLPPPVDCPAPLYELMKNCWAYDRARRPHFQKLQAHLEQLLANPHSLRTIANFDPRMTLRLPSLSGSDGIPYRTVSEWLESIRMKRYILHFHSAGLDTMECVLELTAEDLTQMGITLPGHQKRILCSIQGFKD
Protocol: (§1) FIGS. 49(A-B) illustrate expression of EphA1 in DU145 cells infected with vector control (control) and EphA1 expression retrovirus. FIG. 49B illustrates that about 2,000 cells were plated on 12-well plates in the regular culture medium (10% serum) and low serum medium (0.5%). Cell were cultured for 7 days (10% serum) or 18 days (0.5%). FIG. 49B illustrates that proliferation of prostatic epithelial cells expressing EphA1 and activated with Ephrin-A1 is inhibited.
as §1, with “DU145 human prostatic epithelial cells were infected with retrovirus expressing EphA1. FIG. 49A illustrates” for “FIGS. 49(A-B) illustrate”

Akt = Akt activities in PC-3 cells; type: cell-based, human

proliferation of cells expressing EphA1 (EphA1): is inhibited
B1: ephrin-A1-Fc: ephrin-A1 dimerized by fusion to the heavy chain of human IgG1 (protein)
chain: DRHTVFWNSSNPKFRNEDYTIHVQLNDYVDIICPHYEDHSVADAAMEQYILYLVEHEEYQLCQPQSKDQVRWQCNRPSAKHGPEKLSEKFQRFTPFTLGKEFKEGHSYYYISKPIHQHEDRCLRLKVTVSGKITHSPQAHDNPQEKRLAADDPEVRVLHSIGHS
modifications: left off: a dimerising Fc or GST
notes: ephrin-A1 dimerized by fusion to the heavy chain of human IgG1
clonal growth (primary keratinocytes; EphA2 knockout keratinocytes): resistant to ephrin-A1-induced growth inhibition | clonal growth (primary keratinocytes; wild type and heterozygous, 1.0 μg/ml, 12 days): suppressed the growth of wild type and heterozygous keratinocytes | Akt activities (Akt): inhibition of Akt activities
